B1: CD2-associated protein, residues 109 to 169; numbered along this chain, Q9Y5K6 (parent)
chain: KKRQCKVLFEYIPQNEDELELKVGDIIDINEEVEEGWWSGTLNNKLGLFPSNFVKELEVTD

Variants of: B1
Experiment: abundance fitness (aPCA) (normalised: wild type 0, dead -1); higher = more abundant; growth selection in yeast, the domain comes from the species named
Conditions: Homo sapiens

Abundance fitness, by site and new letter:
F53: M 0.057 | T -0.255 | C 0.067 | W -0.56 | N -0.109 | L -0.157 | S 0.037 | Y 0.019 | Q -0.2 | K -0.031 | E -0.894 | I 0.149 | A 0.015 | R 0.007 | G -0.48 | P -0.525 | H 0.054
K55: I -0.077 | V -0.146 | H -0.035 | N -0.193 | R 0.017 | M 0.009 | E 0.127 | A -0.01 | G -0.131 | L -0.29 | P -1.05 | D -0.313 | T -0.163 | C -0.142 | S -0.259 | Q 0.064
P50: R -0.064 | Q -0.279 | M -0.57 | W -0.764 | S -0.465 | A -0.941 | V -1.03 | N -0.045 | G -0.697 | K -0.226 | H 0.078 | T -0.367 | L -0.665
L48: W -0.201 | R 0.273 | S -0.438 | T -0.021 | V -0.067 | Y -0.033
E58: I -0.23 | Y -0.045 | Q 0.202 | K 0.027 | W 0.098 | A -0.305 | F -0.207 | T -0.211 | R -0.232 | V 0.078 | N -0.057 | C -0.073 | G 0.094 | M 0 | D 0.056 | S -0.035 | L -0.062
L57: R -0.64 | S -0.601 | C -0.041 | T -0.269 | G -0.864 | W -0.486 | P -0.508 | A -0.585 | Q -0.485 | V -0.239 | N -0.69 | K -0.263 | E -0.133 | I 0.241 | F -0.148
V59: F 0.229 | E 0.174 | I -0.087 | C -0.123 | H -0.012 | K -0.283 | M -0.219 | A 0.001 | N -0.342 | L 0.013
S51: V -0.069 | C -0.311 | L -0.366 | G -0.35 | M -0.138 | R -0.361 | K -0.12 | Q -0.307 | P -0.429 | A 0.09 | W -0.093 | I -0.178 | T -0.047 | D -0.324 | F -0.431 | E -0.762 | N -0.769
N52: Y -0.34 | C 0.114 | D -0.016 | A -0.067 | E 0.053 | W -0.454 | H -0.348 | K 0.048 | M -0.12 | Q -0.255 | S -0.02 | R 0.048 | L -0.287 | F -0.228 | P -0.228
F49: Y -0.27 | A -0.755 | L -0.77 | E -0.872 | R -1.3 | K -0.524 | T -0.921 | S -0.707 | C -0.953 | D -0.815 | G -1.06 | W -1.01
V54: S -0.94 | G -0.661 | F -0.416 | R -0.969 | M -0.63 | P -0.816 | T -0.222 | I -0.113 | C 0.125 | L -0.753 | Q -0.546 | W -0.903 | N -0.84 | A -0.52
E56: F -0.406 | Q -0.291 | V -0.105 | P -0.224 | L -0.058 | H -0.666 | Y -0.717 | C 0.034 | I -0.225 | A -0.366 | D -0.505 | K 0.16 | T -0.033 | W -0.769 | S -0.32

— the Human Domainome abundance scans (Beltran et al. 2025)
